Consider two molecules from US20240150797A1, “BIOCATALYTICAL PRODUCTION OF DIHYDROCHALCONES” (Symrise AG, priority 2021, published 2024).

Positions count from the first letter of the chain named.

Holding throughout (format): biochemical
Details in all cases: purified CHI in 50 mM PBS, 100 μM substrate, 25° C.

Data set [1] can be described thus: Specific activity of purified CHI, absorbance decrease at 384 nm, eriodictyol chalcone.
Data set [2] is described as follows: Specific activity of purified CHI, absorbance decrease at 384 nm, naringenin chalcone.
Data set [3] is described as follows: Specific activity of purified CHI, absorbance decrease at 384 nm, 4-O-methyl butein.
The nature of data set [4]: Specific activity of purified CHI, absorbance decrease at 384 nm, homoeriodictyol chalcone.
A short description of data set [5]: Specific activity of purified CHI, absorbance decrease at 384 nm, hesperetin chalcone.
Also: unit not given here.

B1: CHIera Mut8: Chalcone isomerase variant 8 from Eubacterium ramulus, genetically engineered (protein, listed as Eubacterium ramulus)
chain: MADFKFEPMRSLIYVDCVSEDYRPKLQRWIYKVHIPDSISKFEPYVTKYAFYPSFPIPPQGDRFGYARMQLTEHHWLVSPLDPRLEINAIAETFPMDVLVWQGQIPAAAHTDAQIDSDGDAGEAARKSNNAEGNPFIFAFLPMWWEKDLKGKGRTIEDGANYRFNMTIGFPEGVDKAEGEKWLFEKVVPILQAAPECTRVLASAVKKDINGCVMDWVLEIWFENQSGWYKVMVDDMKALEKPSWAQQDAFPFLKPYHNVCSAAVADYTPSNNLANYRGYITMR
For the molecule B1, the “Specific activity, Eriodictyol chalcone” value in data set [1] is reported as 49.0. In data set [2], the “Specific activity, Naringenin chalcone” value stood at 25.6. Moreover, the “Specific activity, 4-O-methyl butein” value in data set [3] is given as 0.5. Also, the “Specific activity, Homoeriodctiol chalcone” value in data set [4] was 21.2. Besides, the “Specific activity, Hesperetin chalcone” value in data set [5] is 83.9.

B2: CHIera Mut13: Chalcone isomerase variant 13 from Eubacterium ramulus, genetically engineered (protein, listed as Eubacterium ramulus)
chain: B1 chain with G122D, E123D
In the case of B2, the “Specific activity, Eriodictyol chalcone” value in data set [1] is listed as 28.0. In addition, the “Specific activity, Naringenin chalcone” value in data set [2] is recorded as 28.0. Moreover, the “Specific activity, 4-O-methyl butein” value in data set [3] is listed as 1.4. Moreover, the “Specific activity, Homoeriodctiol chalcone” value in data set [4] came to 33.6. For the same molecule, the “Specific activity, Hesperetin chalcone” value in data set [5] is listed as 107.1.
